The source of these data is article PMC4994250, “A new mode of SAM domain mediated oligomerization observed in the CASKIN2 neuronal scaffolding protein” (Cell Communication and Signaling : CCS, 2016).

Data set [1] concerns the molecule itself. The data set is described as follows: AUC; sedimentation velocity, 150 mM NaCl, 20 mM sodium phosphate pH 7.8, 20 °C, 50,000 rpm; 10 and 34 μM loading, Kd fitted from the 34 μM experiment; monomer-dimer equilibrium (dimer to monomers).
Data set [2] concerns the molecule itself. The data set is described as follows: crystal structure; selenomethionine labeled SAM1-SAM2, 0.6 mM in T300 buffer, hanging drop at 4 °C, 0.1 M Tris pH 7.5, 2.4 M sodium formate, 5 mM DTT; SAD, 2.75 Å; one tandem in the asymmetric unit.
Data set [3] deals with the molecule itself. The data set is described as follows: AUC; sedimentation velocity, 300 mM NaCl, 20 mM sodium phosphate pH 7.8, 20 °C, 50,000 rpm; 10 and 34 μM loading, Kd fitted from the 34 μM experiment; monomer-dimer equilibrium (dimer to monomers).

B1: human CASKIN2 SAM1-SAM2 tandem (483-634), wild type (domain or fragment)
chain: not shown
modifications: selenomethionine in the protein used for crystals; uniform 15N label in the NMR samples
notes: CASKIN2, human, tandem SAM domains SAM1-SAM2, residues 483-634 of Uniprot Q8WXE0; Cloned into BamHI/XhoI of pET28; the vector probably adds an N-terminal His tag with linker residues (surmise); also called CASKIN2 SAM tandem; wild type SAM tandem; source: E. coli BL21:DE3, purified (Nickel-NTA, gel filtration)
One may read the Kd as the free concentration of one partner at which half of the binding sites on the other are occupied at equilibrium, for simple one-to-one binding. The low end stands for tighter binding, the high end for weaker binding. A word on the stoichiometry N: it is a count of units in the complex or per binding partner. In the case of B1, the figures for the dissociation constant (Kd) in data set [1] and in data set [3] were 52.9 µM and 27.6 µM, respectively. For the same protein, the “stoichiometry N” value in data set [2] worked out at 2.
